# Assay results as given in paper PMC5815190.
# Molecular target: human toll-like receptor 5 (hTLR5) on HEK-Blue-hTLR5 cells (human) (UniProt O60602)
# Sequence of UniProt O60602 (O60602 21-858): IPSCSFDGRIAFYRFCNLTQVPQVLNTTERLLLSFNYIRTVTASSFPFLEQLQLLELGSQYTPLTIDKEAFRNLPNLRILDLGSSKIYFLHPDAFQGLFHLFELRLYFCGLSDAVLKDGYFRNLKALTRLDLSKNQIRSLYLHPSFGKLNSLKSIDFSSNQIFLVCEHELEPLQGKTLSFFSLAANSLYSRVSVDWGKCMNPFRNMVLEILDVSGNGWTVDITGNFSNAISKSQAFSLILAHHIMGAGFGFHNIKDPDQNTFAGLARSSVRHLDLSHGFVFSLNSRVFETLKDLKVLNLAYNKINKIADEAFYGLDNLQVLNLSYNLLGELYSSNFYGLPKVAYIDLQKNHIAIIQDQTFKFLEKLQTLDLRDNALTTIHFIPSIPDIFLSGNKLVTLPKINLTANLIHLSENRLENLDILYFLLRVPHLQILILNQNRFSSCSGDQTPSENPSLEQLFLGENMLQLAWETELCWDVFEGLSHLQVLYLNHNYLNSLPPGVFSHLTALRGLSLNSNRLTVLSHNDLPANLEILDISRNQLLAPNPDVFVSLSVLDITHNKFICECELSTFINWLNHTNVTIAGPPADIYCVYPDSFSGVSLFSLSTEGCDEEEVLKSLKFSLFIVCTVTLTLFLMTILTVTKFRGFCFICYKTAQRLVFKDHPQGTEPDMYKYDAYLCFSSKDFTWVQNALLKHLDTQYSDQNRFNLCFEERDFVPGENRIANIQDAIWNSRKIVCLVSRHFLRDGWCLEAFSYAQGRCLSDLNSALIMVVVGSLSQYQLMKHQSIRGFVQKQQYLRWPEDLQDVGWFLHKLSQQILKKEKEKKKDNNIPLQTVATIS
substance,measurement,value
Lawsonia intracellularis putative flagellin LI0570 (LFliC) (natural protein),"IL-8 mRNA level (RT-PCR, 2^-ddCt) in HEK-Blue-hTLR5 cells treated with 10 and 100 ng/mL LFliC for 24 h",590 fold
